Reference: article PMC7029138, “Modulation of Symbiotic Compatibility by Rhizobial Zinc Starvation Machinery”

T1: Zur (His6-Zur) (Sinorhizobium fredii CCBAU45436, UniProt C3MDK7 1-131)
T1 sequence: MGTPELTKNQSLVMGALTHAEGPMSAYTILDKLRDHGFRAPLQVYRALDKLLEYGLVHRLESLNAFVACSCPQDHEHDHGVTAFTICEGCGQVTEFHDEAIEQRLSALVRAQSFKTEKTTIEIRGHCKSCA

B1: a42610 Zur box probe (dsDNA)
DNA 1: CAACATTCGCATGTTATGTTATAACATATCGCGTAATC
DNA 2: GATTACGCGATATGTTATAACATAACATGCGAATGTTG
B2: e68370 Zur box probe (dsDNA)
DNA 1: CAATCCCACGACGTAATGTTATAACATATCAGATAAGA
DNA 2: TCTTATCTGATATGTTATAACATTACGTCGTGGGATTG
B3: c06450 Zur box probe (dsDNA)
DNA 1: CAGCTCCTTATAATGTTATAACGTAACGGCACTTGATA
DNA 2: TATCAAGTGCCGTTACGTTATAACATTATAAGGAGCTG
B4: znuA promoter Zur box probe (dsDNA)
DNA 1: GCGACTGCGTCGTGTAATGTTATTACATCAATTGCGTTATGCTATAACGTGTGCAATAGC
DNA 2: GCTATTGCACACGTTATAGCATAACGCAATTGATGTAATAACATTACACGACGCAGTCGC
B5: d65890 Zur box probe (dsDNA)
DNA 1: TGATCGACGTGTGTAATGATATAACATATCGCATAAGT
DNA 2: ACTTATGCGATATGTTATATCATTACACACGTCGATCA

What was measured:
[1] = target: T1, Zur (His6-Zur); assay: EMSA; 200 uM ZnSO4; 2.64 uM Zur; 10 mM Tris pH 7.5, 50 mM KCl, 1 mM DTT, 1 ug poly(dI-dC), 200 uM ZnSO4, with or without 50 uM TPEN, ~50 fmol probe in 15 ul, 25 C 20 min; 5% native PAGE in TB at 4 C; details: protein: recombinant; tags: N-terminal His6 (pET-28a(+), BamHI/HindIII); chain copies: 2; label: 5' biotin on both strands; blunt
[2] = target: T1, Zur (His6-Zur); assay: EMSA; 200 uM ZnSO4; 0.33-2.64 uM Zur, oligomeric shift above 1.32 uM; 10 mM Tris pH 7.5, 50 mM KCl, 1 mM DTT, 1 ug poly(dI-dC), 200 uM ZnSO4, with or without 50 uM TPEN, ~50 fmol probe in 15 ul, 25 C 20 min; 5% native PAGE in TB at 4 C; details: protein: recombinant; tags: N-terminal His6 (pET-28a(+), BamHI/HindIII); chain copies: 2; label: 5' biotin on both strands; blunt

| Binder | binding result [1] | binding result [2] |
| --- | --- | --- |
| B1 | binds | – |
| B2 | binds | – |
| B3 | binds | – |
| B4 | – | binds |
| B5 | binds | – |
